B1: LINE1-full (parent)
chain: UACGUAGGUGGUUUUCCCCUGAUAGUGCUAAGGGGGCCUGGAAGUUUGGACUGGGCAGAGCUCAACACAGCGUGGCAAAGUGGCUGUGGCUAGACUGCCUCUCUGGAUUCCUCGUCACUCAGCAGGGCAUCUCUGAGAGAAAUGCC

Variants of: B1
Assay: self-cleavage, relative activity (ratio to wild type); higher = more cleavage; in vitro, sequencing; the parent is a self-cleaving ribozyme

Variant | self-cleavage
U52A U96A | 0.07
C68U A124U | 0.28
A117C A141G | 2.57
U9C C38U | 1.29
U5A U96C | 0.45
U100C G127C | 2.48
U9C A136G | 1.75
A67G G114A | 0.38
U62C U112G | 0
U52C A69G | 0.11
U52G U115C | 1.71
U130G | 1.32
A22C A50U | 1.02
A22C A42G | 1.86
A30G A64U | 0.65
A30G A64C | 0.31
U13C U73A | 1.39
U87G A140U | 0.13
G4C G135A | 0.56
G33A U143A | 1.07
C17U U143G | 1.43

Variant | self-cleavage
U115C U119C | 2.04
U23C C51U | 0.97
A65G A121C | 0.07
C68U A77G | 0.24
A30U A94G | 0.55
U109C U143G | 0.87
G35U U112C | 0.75
C68A A124G | 0.05
A24G U100C | 1.32
A42G U47A | 1.19
A67C U102C | 0.04
A64G A129G | 0.29
A31U U104A | 1.15
A67G A92U | 0.41
U12C U96A | 0.1
U109A U130C | 1.54
U23C C146A | 0
U109A G126A | 1.34
U26A U47A | 0.59
A6U U52C | 1.02
G97A C111U | 0.07

Variant | self-cleavage
G21U G35A | 1.36
G32A A69U | 0.02
A77U U130C | 1.56
U73G U115A | 1.12
U12C G139A | 0.94
A65U G80A | 0.28
G49C A121G | 0.93
A50U A142G | 1.01
U26G A138G | 1.21
C84G | 0.09
A77U U143A | 1.18
A65G U87A | 0.06
G44A A94U | 0
A42G C98U | 0.53
U13A A64G | 0.12
C37G A124G | 1.61
U115A A142U | 1.38
A50C C146U | 1.9
A30U C56A | 0.09
G82U U134G | 1.3
G58U U81C | 0.05

Variant | self-cleavage
A22G A30G | 0.86
U47G G48U | 0.74
U81G A117U | 1.32
A24G U52A | 0.79
U15C C98U | 0.33
U20C U39G | 0.8
U85C C98U | 0.01
G34U U115C | 1.84
U23A U109C | 1.06
U47C U132A | 0.93
U20C A142U | 2.2
U9A C145U | 1.64
A24U U96C | 0.07
G86A A140U | 0.09
A107G U109C | 1.14
U12G U132A | 0.66
C18U G139U | 1.11
U62G A138C | 0.09
U108C A138G | 1.8
U5C U143C | 0.11
A59G A138G | 0.1

From the RNAGym collection of RNA variant scans (doi:10.7554/elife.90254)
